In paper PMC7461809 one finds stoichiometry N data, which are given here for 1 substance.

The assay has as its target EcoWI endonuclease. Nature of the assay: SEC; analytical Superdex 200 10/300 GL, 4°C, 0.38 ml/min, 100 mM NaCl, 20 mM Tris-HCl pH 8, 1 mM DTT, 0.1 mM EDTA, 5% glycerol; purified EcoWI at 2.7 mg/ml; relative molecular weight from Kav against standard proteins. (SEC sorts molecules by how far they enter the pores of the column.)

The substance EcoWI endonuclease (enzyme) yielded a stoichiometry N of 2.

One may read the stoichiometry N as the number of molecules, sites or subunits per partner or assembly.
